Assay [1] deals with T1, HA Nercc (full-length Nercc1 with HA epitope tag) (human, UniProt Q8TD19 1-979).
T1 construct: also called HA Nercc FL
T1 sequence: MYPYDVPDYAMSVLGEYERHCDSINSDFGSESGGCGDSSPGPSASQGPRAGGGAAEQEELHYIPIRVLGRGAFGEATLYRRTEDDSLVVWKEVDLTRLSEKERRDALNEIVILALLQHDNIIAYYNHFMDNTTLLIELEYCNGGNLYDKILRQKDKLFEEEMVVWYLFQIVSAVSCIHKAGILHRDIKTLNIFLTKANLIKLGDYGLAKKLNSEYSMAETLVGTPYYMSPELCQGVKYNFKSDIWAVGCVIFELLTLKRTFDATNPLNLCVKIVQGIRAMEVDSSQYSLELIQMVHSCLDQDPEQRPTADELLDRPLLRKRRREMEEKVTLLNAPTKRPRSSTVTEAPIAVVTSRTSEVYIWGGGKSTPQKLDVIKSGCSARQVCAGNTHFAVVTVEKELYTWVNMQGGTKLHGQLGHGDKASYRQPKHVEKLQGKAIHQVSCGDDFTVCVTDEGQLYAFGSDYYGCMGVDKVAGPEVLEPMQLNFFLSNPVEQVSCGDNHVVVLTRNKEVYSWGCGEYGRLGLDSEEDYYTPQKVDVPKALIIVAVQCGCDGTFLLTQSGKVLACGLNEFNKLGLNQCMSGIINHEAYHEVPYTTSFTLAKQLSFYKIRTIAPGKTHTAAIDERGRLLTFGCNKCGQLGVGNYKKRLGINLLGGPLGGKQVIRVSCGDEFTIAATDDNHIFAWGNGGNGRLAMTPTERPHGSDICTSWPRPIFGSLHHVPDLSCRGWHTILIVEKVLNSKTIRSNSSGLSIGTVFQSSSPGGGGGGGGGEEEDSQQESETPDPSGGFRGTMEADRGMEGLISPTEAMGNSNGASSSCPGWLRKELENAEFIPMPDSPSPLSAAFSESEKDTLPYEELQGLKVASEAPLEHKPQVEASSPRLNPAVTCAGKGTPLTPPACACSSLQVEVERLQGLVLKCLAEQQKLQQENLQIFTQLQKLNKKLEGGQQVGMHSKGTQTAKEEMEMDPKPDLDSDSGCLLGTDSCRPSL
The assay is described as follows: anti-HA immunoprecipitation from co-transfected HEK293 cells, anti-FLAG blot.

The target in a further assay is Ran G19V (UniProt P62826 1-216). Description: co-expression and co-immunoprecipitation. From the text:
(§1) To address more directly the relative binding in vivo of Nercc to Ran-GDP compared to Ran-GTP, the cytoplasmic wild type Nercc and a nuclear form of full length Nercc (NLS-Nercc) were each co-expressed with wild type Ran or Ran mutants that bind GDP (T24N) or GTP (G19V) exclusively; either Ran or Nercc was immunoprecipitated and probed for the association with the other polypeptide. The full-length wild type Nercc bound co-expressed wild type Ran and Ran T24N to a greater extent than RanG19V.

In another assay the target is Ran T24N (UniProt P62826 1-216). The assay is described as follows: co-expression and co-immunoprecipitation.
Description: as §1

Assay [2] concerns the target T2, endogenous Nercc1 kinase of human cells (p120) (human, UniProt Q8TD19 2-979).
T2 construct: Endogenous 120 kDa protein
T2 sequence: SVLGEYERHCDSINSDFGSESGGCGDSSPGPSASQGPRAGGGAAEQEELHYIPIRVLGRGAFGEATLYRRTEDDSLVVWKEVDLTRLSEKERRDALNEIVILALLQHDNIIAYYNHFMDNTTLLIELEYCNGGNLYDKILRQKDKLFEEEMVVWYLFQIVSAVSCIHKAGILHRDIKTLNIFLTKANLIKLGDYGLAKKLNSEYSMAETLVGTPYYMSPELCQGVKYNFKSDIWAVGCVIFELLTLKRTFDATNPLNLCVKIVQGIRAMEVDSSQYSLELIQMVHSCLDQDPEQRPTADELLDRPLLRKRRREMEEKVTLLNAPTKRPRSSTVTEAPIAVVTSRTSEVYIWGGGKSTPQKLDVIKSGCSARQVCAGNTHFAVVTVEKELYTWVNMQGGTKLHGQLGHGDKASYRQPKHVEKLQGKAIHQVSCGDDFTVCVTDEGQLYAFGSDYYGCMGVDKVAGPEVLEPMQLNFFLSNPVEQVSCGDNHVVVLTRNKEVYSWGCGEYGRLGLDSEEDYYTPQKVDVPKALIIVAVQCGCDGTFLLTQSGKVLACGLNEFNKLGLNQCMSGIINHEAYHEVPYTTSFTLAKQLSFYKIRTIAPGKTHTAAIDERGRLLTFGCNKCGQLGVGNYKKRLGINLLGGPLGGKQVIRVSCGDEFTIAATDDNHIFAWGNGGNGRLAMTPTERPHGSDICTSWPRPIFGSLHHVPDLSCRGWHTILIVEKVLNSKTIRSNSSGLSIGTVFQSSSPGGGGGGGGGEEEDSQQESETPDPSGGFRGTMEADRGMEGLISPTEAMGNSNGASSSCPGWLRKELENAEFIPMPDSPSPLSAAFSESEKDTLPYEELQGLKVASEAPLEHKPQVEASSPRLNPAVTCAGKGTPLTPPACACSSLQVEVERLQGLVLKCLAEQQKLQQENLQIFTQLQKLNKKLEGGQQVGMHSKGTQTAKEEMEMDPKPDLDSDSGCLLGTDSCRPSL
Description: anti-FLAG immunoaffinity purification from HEK293 cells; associated band identified by mass spectrometry. The source says:
Immunoaffinity purification of a FLAG Nek6 polypeptide overexpressed in HEK293 cells results in the recovery of an associated 120 kilodalton (kDa) polypeptide (p120). […] The 120 kDa band was excised, subjected to tryptic digestion in situ, microcapillary reverse-phase HPLC and peptide sequence analysis by electrospray ionization mass spectrometry. Spectra corresponding to multiple peptide sequences were identified on each of three successive open reading frames (ORFs) predicted by […] (Burge et al., J. Mol. Biol., 268: 78-94 (1997)) on the human BAC clone 201F1 (AC007055). […] Further analysis of the genomic sequences including and surrounding all three ORFs, using both […] (Borodovsky et al., Computers and Chem., 17: 123-133 (1993)) or […] yielded predictions containing all three original ORFs (AAD31938, AAD31939 and AAD31940) in polypeptides of around 100 kDa (107 kDa and 91 kDa, respectively).

B1: FLAG Nercc (1-891) (enzyme)
chain: MDYKDDDDKMSVLGEYERHCDSINSDFGSESGGCGDSSPGPSASQGPRAGGGAAEQEELHYIPIRVLGRGAFGEATLYRRTEDDSLVVWKEVDLTRLSEKERRDALNEIVILALLQHDNIIAYYNHFMDNTTLLIELEYCNGGNLYDKILRQKDKLFEEEMVVWYLFQIVSAVSCIHKAGILHRDIKTLNIFLTKANLIKLGDYGLAKKLNSEYSMAETLVGTPYYMSPELCQGVKYNFKSDIWAVGCVIFELLTLKRTFDATNPLNLCVKIVQGIRAMEVDSSQYSLELIQMVHSCLDQDPEQRPTADELLDRPLLRKRRREMEEKVTLLNAPTKRPRSSTVTEAPIAVVTSRTSEVYIWGGGKSTPQKLDVIKSGCSARQVCAGNTHFAVVTVEKELYTWVNMQGGTKLHGQLGHGDKASYRQPKHVEKLQGKAIHQVSCGDDFTVCVTDEGQLYAFGSDYYGCMGVDKVAGPEVLEPMQLNFFLSNPVEQVSCGDNHVVVLTRNKEVYSWGCGEYGRLGLDSEEDYYTPQKVDVPKALIIVAVQCGCDGTFLLTQSGKVLACGLNEFNKLGLNQCMSGIINHEAYHEVPYTTSFTLAKQLSFYKIRTIAPGKTHTAAIDERGRLLTFGCNKCGQLGVGNYKKRLGINLLGGPLGGKQVIRVSCGDEFTIAATDDNHIFAWGNGGNGRLAMTPTERPHGSDICTSWPRPIFGSLHHVPDLSCRGWHTILIVEKVLNSKTIRSNSSGLSIGTVFQSSSPGGGGGGGGGEEEDSQQESETPDPSGGFRGTMEADRGMEGLISPTEAMGNSNGASSSCPGWLRKELENAEFIPMPDSPSPLSAAFSESEKDTLPYEELQGLKVASEAPLEHKPQVEASSPRLNPAVTCAGKGTPLTPPACA
In the case of B1, the binding result in assay [1] is recorded as “no binding”.

B2: FLAG Nercc (full-length wild type Nercc1 kinase with FLAG epitope tag) (enzyme)
chain: MDYKDDDDKMSVLGEYERHCDSINSDFGSESGGCGDSSPGPSASQGPRAGGGAAEQEELHYIPIRVLGRGAFGEATLYRRTEDDSLVVWKEVDLTRLSEKERRDALNEIVILALLQHDNIIAYYNHFMDNTTLLIELEYCNGGNLYDKILRQKDKLFEEEMVVWYLFQIVSAVSCIHKAGILHRDIKTLNIFLTKANLIKLGDYGLAKKLNSEYSMAETLVGTPYYMSPELCQGVKYNFKSDIWAVGCVIFELLTLKRTFDATNPLNLCVKIVQGIRAMEVDSSQYSLELIQMVHSCLDQDPEQRPTADELLDRPLLRKRRREMEEKVTLLNAPTKRPRSSTVTEAPIAVVTSRTSEVYIWGGGKSTPQKLDVIKSGCSARQVCAGNTHFAVVTVEKELYTWVNMQGGTKLHGQLGHGDKASYRQPKHVEKLQGKAIHQVSCGDDFTVCVTDEGQLYAFGSDYYGCMGVDKVAGPEVLEPMQLNFFLSNPVEQVSCGDNHVVVLTRNKEVYSWGCGEYGRLGLDSEEDYYTPQKVDVPKALIIVAVQCGCDGTFLLTQSGKVLACGLNEFNKLGLNQCMSGIINHEAYHEVPYTTSFTLAKQLSFYKIRTIAPGKTHTAAIDERGRLLTFGCNKCGQLGVGNYKKRLGINLLGGPLGGKQVIRVSCGDEFTIAATDDNHIFAWGNGGNGRLAMTPTERPHGSDICTSWPRPIFGSLHHVPDLSCRGWHTILIVEKVLNSKTIRSNSSGLSIGTVFQSSSPGGGGGGGGGEEEDSQQESETPDPSGGFRGTMEADRGMEGLISPTEAMGNSNGASSSCPGWLRKELENAEFIPMPDSPSPLSAAFSESEKDTLPYEELQGLKVASEAPLEHKPQVEASSPRLNPAVTCAGKGTPLTPPACACSSLQVEVERLQGLVLKCLAEQQKLQQENLQIFTQLQKLNKKLEGGQQVGMHSKGTQTAKEEMEMDPKPDLDSDSGCLLGTDSCRPSL
notes: Expressed in HEK293 cells; also called FLAG Nercc1; FLAG Nercc full length (FL)
Turning to B2, the binding result in assay [1] was “binds”.

B3: Nercc (338-739) fused to the Nercc NLS (other)
chain: PIAVVTSRTSEVYIWGGGKSTPQKLDVIKSGCSARQVCAGNTHFAVVTVEKELYTWVNMQGGTKLHGQLGHGDKASYRQPKHVEKLQGKAIHQVSCGDDFTVCVTDEGQLYAFGSDYYGCMGVDKVAGPEVLEPMQLNFFLSNPVEQVSCGDNHVVVLTRNKEVYSWGCGEYGRLGLDSEEDYYTPQKVDVPKALIIVAVQCGCDGTFLLTQSGKVLACGLNEFNKLGLNQCMSGIINHEAYHEVPYTTSFTLAKQLSFYKIRTIAPGKTHTAAIDERGRLLTFGCNKCGQLGVGNYKKRLGINLLGGPLGGKQVIRVSCGDEFTIAATDDNHIFAWGNGGNGRLAMTPTERPHGSDICTSWPRPIFGSLHHVPDLSCRGWHTILIVEKVLNSKTIRSNSSG
notes: also called Nercc RCC1 domain directed to the nucleus; not shown: Nercc NLS
Take B3: the binding result with Ran G19V and with Ran T24N was “no binding” each time.

B4: FLAG Nek6 (enzyme)
chain: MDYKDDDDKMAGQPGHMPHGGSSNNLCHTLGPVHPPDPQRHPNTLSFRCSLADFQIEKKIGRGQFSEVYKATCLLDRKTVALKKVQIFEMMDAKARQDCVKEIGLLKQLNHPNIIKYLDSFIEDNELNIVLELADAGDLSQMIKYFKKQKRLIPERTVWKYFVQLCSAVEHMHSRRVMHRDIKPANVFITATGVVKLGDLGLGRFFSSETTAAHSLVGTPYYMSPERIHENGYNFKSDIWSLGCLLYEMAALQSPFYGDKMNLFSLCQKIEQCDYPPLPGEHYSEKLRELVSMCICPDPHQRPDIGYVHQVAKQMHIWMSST
notes: Expressed in HEK293 cells; runs as a doublet (phosphorylated and unphosphorylated); also called wild type FLAG Nek6
Turning to B4, the binding result in assay [2] is recorded as “binds”.

B5: FLAG Nercc (338-739) (other)
chain: MDYKDDDDKPIAVVTSRTSEVYIWGGGKSTPQKLDVIKSGCSARQVCAGNTHFAVVTVEKELYTWVNMQGGTKLHGQLGHGDKASYRQPKHVEKLQGKAIHQVSCGDDFTVCVTDEGQLYAFGSDYYGCMGVDKVAGPEVLEPMQLNFFLSNPVEQVSCGDNHVVVLTRNKEVYSWGCGEYGRLGLDSEEDYYTPQKVDVPKALIIVAVQCGCDGTFLLTQSGKVLACGLNEFNKLGLNQCMSGIINHEAYHEVPYTTSFTLAKQLSFYKIRTIAPGKTHTAAIDERGRLLTFGCNKCGQLGVGNYKKRLGINLLGGPLGGKQVIRVSCGDEFTIAATDDNHIFAWGNGGNGRLAMTPTERPHGSDICTSWPRPIFGSLHHVPDLSCRGWHTILIVEKVLNSKTIRSNSSG
notes: also called Nercc RCC1 domain; Nercc RCC1-like domain
In the case of B5, the binding result with Ran G19V and with Ran T24N was “no binding” each time.

The values above are taken from US20060052582A1 (published 2006).
